For this assay, the target named is T1, CT83 peptide on HLA-A2 (human).
T1 peptide: KLVELEHTL
Nature of the assay: killing.

B1: A2-CT83 TCR (TCR, V domains shown)
Valpha: GEDVEQSLFLSVREGDSSVINCTYTDSSSTYLYWYKQEPGAGLQLLTYIFSNMDMKQDQRLTVLLNKKDKHLSLRIADTQTGDSAIYFCAEKSGYSGAGSYQLTFGKGTKLSVIP
Vbeta: SAVISQKPSRDICQRGTSLTIQCQVDSQVTMMFWYRQQPGQSLTLIATANQGSEATYESGFVIDKFPISRPNLTFSTLTVSNMSPEDSSIYLCSVQDSEAFFGQGTRLTVV
With B1, the binding result is “recognises”.

The values are drawn from US20240082304A1 (published 2024).
